From paper PMC3392113 (Human Molecular Genetics, 2012)

Biological target: the molecule itself
Test: SDS-PAGE

B1: MBP-ΔN597 (human DISC1 amino acids 326-597 fused to maltose-binding protein) (domain or fragment, UniProt Q9NRI5 326-597, looked up)
chain: WDTLLRKWEPVLRDCLLRNRRQMEVISLRLKLQKLQEDAVENDDYDKAETLQQRLEDLEQEKISLHFQLPSRQPALSSFLGHLAAQVQAALRRGATQQASGDDTHTPLRMEPRLLEPTAQDSLHVSITRRDWLLQEKQQLQKEIEALQARMFVLEAKDQQLRREIEEQEQQLQWQGCDLTPLVGQLSLGQLQEVSKALQDTLASAGQIPFHAEPPETIRSLQERIKSLNLSLKEITTKVCMSEKFCSTLRKKVNDIETQLPALLEAKMHAIS
stoichiometry N: 2
